Test system: mutant form of α-Gal A expressed in HEK-293 cells
Assay: HEK assay (GLP HEK / Migalastat Amenability Assay): α-Gal A activity in lysates of transiently transfected HEK-293 cells incubated with or without 10 μM migalastat
Assay type: cell-based, human
Settings: for Absolute increase (% WT): 10 μM migalastat versus baseline; for Relative increase: 10 μM migalastat α-Gal A activity relative to baseline; for 10 μM migalastat α-Gal A activity (% WT): 5 days; for 10 μM migalastat α-Gal A activity (% WT) / Baseline α-Gal A activity (% WT): percentage of baseline wild-type α-Gal A activity; for 10 μM migalastat α-Gal A activity (% WT) / Baseline α-Gal A activity (% WT) / Baseline α-Gal A activity / 10 μM migalastat α-Gal A activity: mean ± SEM; for Baseline α-Gal A activity (% WT): absence of migalastat; for Baseline α-Gal A activity / 10 μM migalastat α-Gal A activity: lysates of HEK-293 cells transfected with the mutant form; for Baseline α-Gal A activity: incubated 5 days in the absence of migalastat; for 10 μM migalastat α-Gal A activity: incubated 5 days with 10 μM migalastat
How it was run: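 Activity reported as 4-MU released (nmol/mg/hr), mean±SEM, from lysates of transiently transfected HEK-293 cells expressing mutant α-Gal A, cultured with or without 10 μM migalastat.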

Molecule | Absolute increase (% WT) | Relative increase | 10 μM migalastat α-Gal A activity (% WT) | Baseline α-Gal A activity (% WT) | Baseline α-Gal A activity [nmol/mg/h] | 10 μM migalastat α-Gal A activity [nmol/mg/h]
E178K (protein) MQLRNPELHLGCALALRFLALVSWDIPGARALDNGLARTPTMGWLHWERFMCNLDCQEEPDSCISEKLFMEMAELMVSEGWKDAGYEYLCIDDCWMAPQRDSEGRLQADPQRFPHGIRQLANYVHSKGLKLGIYADVGNKTCAGFPGSFGYYDIDAQTFADWGVDLLKFDGCYCDSLKNLADGYKHMSLALNRTGRSIVYSCEWPLYMWPFQKPNYTEIRQYCNHWRNFADIDDSWKSIKSILDWTSFNQERIVDVAGPGGWNDPDMLVIGNFGLSWNQQVTQMALWAIMAAPLFMSNDLRHISPQAKALLQDKDVIAINQDPLGKQGYQLRQGDNFEVWERPLSGLAWAVAMINRQEIGGPRSYTIAVASLGKGVACNPACFITQLLPVKRKLGFYEWTSRLRSHINPTGTVLLQLENTMQMSLKDLL | 16.4 | 1.2 | 90.9 ± 4.8 | 74.5 ± 3.4 | 25584 ± 1225 | 31222 ± 1660
L180S (protein) MQLRNPELHLGCALALRFLALVSWDIPGARALDNGLARTPTMGWLHWERFMCNLDCQEEPDSCISEKLFMEMAELMVSEGWKDAGYEYLCIDDCWMAPQRDSEGRLQADPQRFPHGIRQLANYVHSKGLKLGIYADVGNKTCAGFPGSFGYYDIDAQTFADWGVDLLKFDGCYCDSLENSADGYKHMSLALNRTGRSIVYSCEWPLYMWPFQKPNYTEIRQYCNHWRNFADIDDSWKSIKSILDWTSFNQERIVDVAGPGGWNDPDMLVIGNFGLSWNQQVTQMALWAIMAAPLFMSNDLRHISPQAKALLQDKDVIAINQDPLGKQGYQLRQGDNFEVWERPLSGLAWAVAMINRQEIGGPRSYTIAVASLGKGVACNPACFITQLLPVKRKLGFYEWTSRLRSHINPTGTVLLQLENTMQMSLKDLL | 35.5 | 3.3 | 50.9 ± 2.3 | 15.4 ± 1.5 | 5625 ± 604 | 18335 ± 964
E178Q (protein) MQLRNPELHLGCALALRFLALVSWDIPGARALDNGLARTPTMGWLHWERFMCNLDCQEEPDSCISEKLFMEMAELMVSEGWKDAGYEYLCIDDCWMAPQRDSEGRLQADPQRFPHGIRQLANYVHSKGLKLGIYADVGNKTCAGFPGSFGYYDIDAQTFADWGVDLLKFDGCYCDSLQNLADGYKHMSLALNRTGRSIVYSCEWPLYMWPFQKPNYTEIRQYCNHWRNFADIDDSWKSIKSILDWTSFNQERIVDVAGPGGWNDPDMLVIGNFGLSWNQQVTQMALWAIMAAPLFMSNDLRHISPQAKALLQDKDVIAINQDPLGKQGYQLRQGDNFEVWERPLSGLAWAVAMINRQEIGGPRSYTIAVASLGKGVACNPACFITQLLPVKRKLGFYEWTSRLRSHINPTGTVLLQLENTMQMSLKDLL | 18.3 | 1.3 | 86.4 ± 5 | 68.1 ± 4.5 | 23272 ± 1501 | 29671 ± 1733
L180M (protein) MQLRNPELHLGCALALRFLALVSWDIPGARALDNGLARTPTMGWLHWERFMCNLDCQEEPDSCISEKLFMEMAELMVSEGWKDAGYEYLCIDDCWMAPQRDSEGRLQADPQRFPHGIRQLANYVHSKGLKLGIYADVGNKTCAGFPGSFGYYDIDAQTFADWGVDLLKFDGCYCDSLENMADGYKHMSLALNRTGRSIVYSCEWPLYMWPFQKPNYTEIRQYCNHWRNFADIDDSWKSIKSILDWTSFNQERIVDVAGPGGWNDPDMLVIGNFGLSWNQQVTQMALWAIMAAPLFMSNDLRHISPQAKALLQDKDVIAINQDPLGKQGYQLRQGDNFEVWERPLSGLAWAVAMINRQEIGGPRSYTIAVASLGKGVACNPACFITQLLPVKRKLGFYEWTSRLRSHINPTGTVLLQLENTMQMSLKDLL | 29.5 | 1.3 | 122.9 ± 5.5 | 93.4 ± 6.6 | 35987 ± 2266 | 47587 ± 2132

From patent publication US11833164B2, “Methods of treating Fabry disease in patients having a mutation in the GLA gene” (Amicus Therapeutics, Inc., priority 2019, dated 2023)
